Experimental data reported in paper PMC3390394, “Characterisation of the First Enzymes Committed to Lysine Biosynthesis in Arabidopsis thaliana” (PLoS ONE, 2012).
“And” between values parts separate entries of the source, which are not always exact repeats. Identical values can stand only once.

Key:
[1] = biological target: the molecule itself; test: small angle X-ray scattering (SAXS); in-line gel filtration (Superdex 200 5/150), 20 mM Tris.HCl, 150 mM NaCl, pH 8.0, 27°C; initial concentration 2-5 mg/mL; volume and molecular weight by AUTOPOROD, comparison with crystal structures by CRYSOL
[2] = biological target: the molecule itself; test: SEC-MALS; Malvern P3000 column with Viscotek TDA (refractive index, low angle and right angle light scattering); 100 µL of 1.0 mg/mL; 20 mM Tris-HCl, 150 mM NaCl, pH 8.0; 28°C

B1: Thermotoga maritima dihydrodipicolinate reductase (Tm-DHDPR) (enzyme, T. maritima)
chain: MKYGIVGYSGRMGQEIQKVFSEKGHELVLKVDVNGVEELDSPDVVIDFSSPEALPKTVDLCKKYRAGLVLGTTALKEEHLQMLRELSKEVPVVQAYNFSIGINVLKRFLSELVKVLEDWDVEIVETHHRFKKDAPSGTAILLESALGKSVPIHSLRVGGVPGDHVVVFGNIGETIEIKHRAISRTVFAIGALKAAEFLVGKDPGMYSFEEVIFGGE
notes: Dihydrodipicolinate reductase (DapB), Thermotoga maritima; construct not described; theoretical mass of the tetramer printed as 99,380 Da
- stoichiometry N [1]: 4

B2: Escherichia coli dihydrodipicolinate reductase (Ec-DHDPR) (enzyme, E. coli)
chain: MHDANIRVAIAGAGGRMGRQLIQAALALEGVQLGAALEREGSSLLGSDAGELAGAGKTGVTVQSSLDAVKDDFDVFIDFTRPEGTLNHLAFCRQHGKGMVIGTTGFDEAGKQAIRDAAADIAIVFAANFSVGVNVMLKLLEKAAKVMGDYTDIEIIEAHHRHKVDAPSGTALAMGEAIAHALDKDLKDCAVYSREGHTGERVPGTIGFATVRAGDIVGEHTAMFADIGERLEITHKASSRMTFANGAVRSALWLSGKESGLFDMRDVLDLNNL
notes: Dihydrodipicolinate reductase (DapB), Escherichia coli; construct not described; theoretical mass of the tetramer printed as 114,800 Da
- stoichiometry N [1]: 4

B3: Arabidopsis thaliana dihydrodipicolinate reductase 2 (At-DHDPR2) (enzyme, UniProt Q8LB01 54-349, looked up)
chain: LSMGKSETFEEAGNSVAPGNGISIMVNGCSGKMGKAVIKAADSAGVNIVPTSFGSVEEAGQTVEVCGKEILVHGPTEREKVLSSVFEKYPELIVVDYTIPSAVNDNAELYGKVGVPFVMGTTGGDRTRLYKTVEESKIYAVISPQMGKQVVAFLAAMEIMSEQFPGAFAGYSLEVMESHQASKLDASGTAKAVISCFQKLGVSYDMDQIQLIRDPKQQIEVVGVPEEHVSGHAFHLYHLTSPDKTVSFEFQHNVCGRSIYAEGTVDAVLFLAKKIRSKAEKRIYNMIDVLREGNMR
notes: Dihydrodipicolinate reductase 2 (At-DHDPR2), Arabidopsis thaliana, plasmid encoding AT3G59890 from TAIR; primers excluded the chloroplast transit peptide as identified by chloroP; residues may remain after TEV cleavage; also called AT3G59890; source: E. coli BL21(DE3) Star, purified (His-Trap, TEV cleavage, second His-trap)
- stoichiometry N [2]: 2 and 4
